The results in this text go back to FireProtDB (doi:10.1110/ps.03176803).

Usually Tm stands for the temperature at the midpoint of the melting transition.

The labels stand for the following.
B1: Guanyl-specific ribonuclease Sa, P05798 (parent)
chain: DVSGTVCLSALPPEATDTLNLIASDGPFPYSQDGVVFQNRESVLPTQSYGYYHEYTVITPGARTRGTRRIITGEATQEDYYTGDHYATFSLIDQTC

The variants in this data set derive from B1. Particulars: Kitasatospora aureofaciens, Thermal, DSC, reversible: yes (90-95%), structure 1RGG, whole UniProt chain shown.
Where [1] appears, read: pH 5.5, 55.6 °C, sodium acetate potassium chloride 0.01 M 0.05 M.
Where [2] appears, read: pH 5.5, sodium acetate potassium chloride 0.01 M 0.05 M.

Consider DVSGTVCLSALPPEATDTLNLIASDGPFPYSQDGVVFQNRESVLPTQSYGYYHEYTVITPGARTRGTRRIITGKATQEDYYTGDHYATFSLIDQTC [E74K], for which, under setting [1], the “ddG of mutation (higher = less stable)” value is -0.1 kcal/mol. For the same variant, under setting [2], the Tm came to 56 °C; the “change of melting temperature, mutant - wild type (higher = more stable)” value (“change of melting temperature, mutant” below) was found to be 0.4 °C; the “unfolding enthalpy (calorimetric)” value amounted to 103 kcal/mol; the “unfolding enthalpy (van 't Hoff)” value worked out at 99 kcal/mol. Besides, the “ddG of mutation (higher = less stable)” value (pH 7, 49 °C, PIPES 0.03 M) was -0.9 kcal/mol. Further, where the note is “pH 7, PIPES 0.3 M”, the midpoint of thermal melting (Tm) was 52.1 °C; the “change of melting temperature, mutant” value was 3.1 °C; the “unfolding enthalpy (calorimetric)” value turned out to be 101 kcal/mol; the “unfolding enthalpy (van 't Hoff)” value came out at 113 kcal/mol.
Turning to DVSGTVCLSALPPEATDTLNLIASDGPFPYSQDGVVFANRESVLPTQSYGYYHEYTVITPGARTRGTRRIITGEATQEDYYTGDHYATFSLIDQTC [Q38A], the “ddG of mutation (higher = less stable)” value under setting [1] is -0.4 kcal/mol. The “ddG of mutation (higher = less stable)” value (pH 7, 49 °C, PIPES 0.03 M) is -1 kcal/mol. Also, under “pH 7, PIPES 0.03 M”, the Tm is 52.5 °C; the “change of melting temperature, mutant” value worked out at 3.5 °C; the “unfolding enthalpy (calorimetric)” value was determined as 109 kcal/mol; the “unfolding enthalpy (van 't Hoff)” value was 110 kcal/mol.
For DVSGTVCLSALPPEATDTLNLIASDGPFPYSQDGVVFQNRESVLPTQSYGYYHEYTVITPGARTAGTRRIITGEATQEDYYTGDHYATFSLIDQTC [R65A], the “ddG of mutation (higher = less stable)” value under setting [1] turned out to be 1.3 kcal/mol. In addition, under setting [2], the Tm was 51.1 °C; the “change of melting temperature, mutant” value is -4.5 °C; the “unfolding enthalpy (calorimetric)” value was determined as 81 kcal/mol; the “unfolding enthalpy (van 't Hoff)” value was found to be 78 kcal/mol. The “ddG of mutation (higher = less stable)” value (pH 7, 49 °C, PIPES 0.03 M) was found to be 1 kcal/mol. Further, under “pH 7, PIPES 0.03 M”, the Tm was 45.6 °C; the “change of melting temperature, mutant” value is -3.4 °C; the “unfolding enthalpy (calorimetric)” value is 81 kcal/mol; the “unfolding enthalpy (van 't Hoff)” value amounted to 90 kcal/mol.
Turning to DVSGTVCLSALPPEATDTLNLIASDGPFPYSQDGVVFQNRKSVLPTQSYGYYHEYTVITPGARTRGTRRIITGEATQEDYYTGDHYATFSLIDQTC [E41K], under setting [1], the “ddG of mutation (higher = less stable)” value was determined as 1.5 kcal/mol. Also, under setting [2], the midpoint of thermal melting (Tm) was determined as 50.5 °C; the “change of melting temperature, mutant” value is -5.1 °C; the “unfolding enthalpy (calorimetric)” value is 97 kcal/mol; the “unfolding enthalpy (van 't Hoff)” value turned out to be 101 kcal/mol. Besides, the “ddG of mutation (higher = less stable)” value (pH 7, 49 °C, PIPES 0.03 M) turned out to be 0.7 kcal/mol. Moreover, under “pH 7, PIPES 0.03 M”, the Tm stood at 46.5 °C; the “change of melting temperature, mutant” value is -2.5 °C; the “unfolding enthalpy (calorimetric)” value came out at 90 kcal/mol; the “unfolding enthalpy (van 't Hoff)” value came out at 100 kcal/mol.
As for DVSGTVCLSALPPEATDTLNLIASDGPFPYSQDGVVFQNRESVLPTQSYGYYHEYTVITPGARTRGTRRIITGEATQEDYYTGDQYATFSLIDQTC [H85Q], the “ddG of mutation (higher = less stable)” value under setting [1] worked out at 0 kcal/mol. Under setting [2], the Tm turned out to be 55.5 °C; the “change of melting temperature, mutant” value was -0.1 °C; the “unfolding enthalpy (calorimetric)” value turned out to be 94 kcal/mol; the “unfolding enthalpy (van 't Hoff)” value was found to be 105 kcal/mol. Also, the “ddG of mutation (higher = less stable)” value (pH 7, 49 °C, PIPES 0.03 M) is 0 kcal/mol. Also, where the note is “pH 7, PIPES 0.03 M”, the midpoint of thermal melting (Tm) was 49.1 °C; the “change of melting temperature, mutant” value is 0.1 °C; the “unfolding enthalpy (calorimetric)” value stood at 90 kcal/mol; the “unfolding enthalpy (van 't Hoff)” value came to 89 kcal/mol.
As to DVSGTVCLSALPPEATDTLNLIASDGPFPYSQDGVVFQNRESVLPTQSYGYYHQYTVITPGARTRGTRRIITGEATQEDYYTGDHYATFSLIDQTC [E54Q], under setting [1], the “ddG of mutation (higher = less stable)” value stood at 2.3 kcal/mol. For the same variant, the “ddG of mutation (higher = less stable)” value (pH 7, 49 °C, PIPES 0.03 M) was found to be 1.7 kcal/mol. Also, under “pH 7, PIPES 0.03 M”, the Tm was determined as 43.1 °C; the “change of melting temperature, mutant” value is -5.9 °C; the “unfolding enthalpy (calorimetric)” value was 81 kcal/mol; the “unfolding enthalpy (van 't Hoff)” value stood at 87 kcal/mol.
